The results in this text go back to a protein production outcome set (Wang et al. 2014).

The nature of the data set: label from the status in PepcDB records.
Consider “MTAASETFDVVVVGAGPAGGQCARRLAQAGRTVLLVDQLKTWTDHDFSSGGTPLETLDRFQLPDRVIGSRWSQLRVVTTREDHTWKSARSLGCVLDFAALRQFLAEETTTHGGSVRLGWQYRDRQQLTDGRWQIRFRDRLTSSDRWVTSRAVVDATGSARKVIYTAAEPRPDYLRGVGIEYLIEVPETVYQRFADALHFYLGHHWLPKGYSWIFPMQSGRLKVGACWFHGDHRFLKPDQPLRHYIDLLLTEQVQCPDYRLVDVHGAAIDYSGDRCDRHVQASILGIGDAVSAINFLGGEGIRHGLESADRAAQVLDAWLQGTVPDLSSYEQQIRRRFDRLWTLSLRLGMKKYLQDSDAKIDRIVRWCCALSTDDLMAILFDYRFQRLGRRLGRFFWLSVMTRLRLRWQRWRRPSHVA”, for which the protein production entry is on record as “failed”.

“MFKHCLICTDFSDGLQRLAGFVEELSLSGITKLIFLHTVSVWEDEHIADVDESKLKEAKTYLESLVGQVPPGIEVKVEVSSVRYVDLVNQLVEQEAIDLIINGMPVRSNLESKLFGSHTLSLAKSTKVPVMILRPQLVSTYTVEEMALRCQHLWRNLLVPYDASSAGNYLIERLKSALEKAPPGKVESCYFLSILEDGMRRPELLEIRRQEAEAKLAEIKQQFSPLVPNIITEVRHGSPVQEILDTAFVNDITAIAVASRRATLLDWTVPSLTDSILNRSWFPLLFFSPKG”: the protein production entry is “failed”.

“MALVRKDVVKLAAPIFVEQLFVTLMGMINTMMAGHIGKEAVSAIGMIDSINNIFIAFFSALAVGGTVVVAQYIGQNNIKKANESTKQALYSTIIIAFVITIIMAILKGPLLGFLFGSAEKEVILDANSYFGITLLTYPLITIDLVSNGILRGAGDTKTPMKISILMNVLNVAFTALFIWGIKINGTVVVKSLGITGAALGIATARTIGGIIILIVMVRGSRIVQLKKLTEFKFDMTLLKPIFGIGVPASVESLLFNGGKLIMQIFIVGMGTVAMASNTIVNSISNFLNIPGNSLVIAATALVGQHMGRDDDKGAEKCLSYITKLSTVLLAIVGILSILFSRHLPSPVYWK”: the protein production entry is “failed”.

As for “MLVSIILVNYNGADILPDCLNSIDKFISKDNCEILLVDNASQDNSYELVAQDFPDVKIVRLPKNYGFGAGNNAGAKIAKGKFLLLLNTDTILTTNILPHLIDLMRENPDVGIIGTKLVFPDETFQISFAYTIGIKGEYKSRKLHEYAEDKSKLNSLEQEFNTIKEVDIVVGAALFIRADLFHSVGGFDEKFFIYFEDADLCRRVQNQGYKILYTPQVSLIHIRGHSMKKNLEHHHHHH”, the protein production entry is recorded as “failed”.

Turning to “MCSMASHDLSVFLEEFGATVNLTLPGIVSEKERLLLKLLMEGMSVTEISQYRNRSAKTISHQKKQLYEKLGIQSDITFWRDIFFQYHPQVISGTGNKNNFYIPDNRCHHIVTPEAISLALENHEFKPWIQPVFCAQTGVLTGCEVLVRWEHPQTGIIPPDQFIPLAESSGLIVIMTRQLMKQTADILMPVKHLLPDNFHIGINVSAGCFLAAGFEKECLNLVKKLGNDKIKLVLELTERNPIPVTPEARAIFDSLHQHNITFALDDFGTGYATYRYLQAFPVDFIKIDKSFVQMAGVDEISGHIVDNIVELARKPGLSIVAEGVETQEQADLMIGKGVHFLQGYLYSPPVPGNKFISEWVMKAGG”, the protein production entry is “failed”.

For the sequence “MQESVVRVDYDSLETCKNFKPSVGTELIVLEKDIAHARFKGNESMVYEENFVHAGFVLIACNYAALCALNKRHSVVVSNNINFYAPLELNQEALIKAQVIQDGVKKAEIKIEAFVLDIQVLEGMIEIVVFDKKPFKFNFKEE”, the protein production entry was “failed”.

With “MTQSPDITAKSWAMVATLGFVWGGTFLINELALEGITPFWLAAGRVCFGALLSTLVWRAMGGRLFSAPLSGSERLSLVIIALLSSAVPFSLIAWGQQYVTAGFTGVSMASIALMVLPLAHFFVPGERMTWRRALGFAIGFAGVALLMGAQAFESSGAALELPGRLACLAATACYAVASILMRRLPAVDPMGLSTVLLLIGVVAVLPMAWIAEGPPPSTDLRTLGLIVFLGMVPTAAANLLRVTLIRSAGPVFMSLTNYQVPIWSVLLGAALLGEPLPPVLLWSLLLILGGVGLSQYGALRRLFTRQ”, the protein production result is “failed”.
